Reference: US20180155451A1 (published 2018)

T1: FcγRIIa H (human, UniProt P12318 34-217)
T1 construct: extracellular domain; also called FcgRIIa H type; 2aH
T1 sequence (looked up): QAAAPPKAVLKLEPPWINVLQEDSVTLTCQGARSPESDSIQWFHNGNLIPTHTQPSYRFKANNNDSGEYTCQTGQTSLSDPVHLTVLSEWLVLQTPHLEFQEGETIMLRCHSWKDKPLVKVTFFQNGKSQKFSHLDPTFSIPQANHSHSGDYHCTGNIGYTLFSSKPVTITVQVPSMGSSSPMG

T2: FcγRIIb (human, UniProt P31994 43-217)
T2 construct: extracellular domain; also called FcgRIIb; 2b
T2 sequence (looked up): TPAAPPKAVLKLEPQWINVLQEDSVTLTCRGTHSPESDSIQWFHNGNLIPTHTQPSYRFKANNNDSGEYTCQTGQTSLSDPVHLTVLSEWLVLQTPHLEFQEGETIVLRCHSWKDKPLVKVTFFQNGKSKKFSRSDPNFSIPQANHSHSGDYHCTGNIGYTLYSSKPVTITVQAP

T3: FcγRIIb (human, UniProt P31994 43-217)
T3 construct: extracellular domain; also called FcgRIIb; 2b; not shown: His tag at the C terminus
T3 sequence (looked up): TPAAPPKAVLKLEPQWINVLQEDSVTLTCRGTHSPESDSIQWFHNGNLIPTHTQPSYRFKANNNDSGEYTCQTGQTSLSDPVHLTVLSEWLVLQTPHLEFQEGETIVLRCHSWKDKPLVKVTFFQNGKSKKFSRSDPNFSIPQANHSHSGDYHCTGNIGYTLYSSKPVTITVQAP

T4: FcγRIIb extracellular domain with C-terminal His tag (human, UniProt P31994 43-217)
T4 construct: extracellular domain; Soluble receptor expressed in FreeStyle293 cells, used as analyte in Biacore; also called FcgRIIb; 2b; not shown: His tag at the C terminus
T4 sequence (looked up): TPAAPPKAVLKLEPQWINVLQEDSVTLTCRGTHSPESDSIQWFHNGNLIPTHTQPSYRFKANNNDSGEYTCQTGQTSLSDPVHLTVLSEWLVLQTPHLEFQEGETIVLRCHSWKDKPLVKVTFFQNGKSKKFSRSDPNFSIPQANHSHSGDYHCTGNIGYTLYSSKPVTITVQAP


Columns and labels:
FcγRIIa H = biological target: T1, FcγRIIa H; experiment: SPR (Biacore), antibody captured on antigen-peptide chip, FcγR as analyte; binding relative to GpH7-A5/GpH7-B3/GpL16-k0 = 100
FcγRIIb [1] = biological target: T2, FcγRIIb; experiment: as above
FcγRIIb [2] = biological target: T3, FcγRIIb; experiment: SPR (Biacore), antibody captured, FcγR as analyte; binding as % of GpH7-A5/GpH7-B3/GpL16-k0
FcγRIa = biological target: T5, FcγRIa (human, UniProt P12314 16-292); experiment: as above
T5 construct: extracellular domain; also called FcgRI; 1a; not shown: His tag at the C terminus

[3] = biological target: T4, FcγRIIb extracellular domain with …; experiment: SPR (Biacore), antibody captured on antigen peptide chip, FcγR as analyte
Method: (§1) Analysis of interaction between objective antibody and the FcγR was carried out using Biacore T100 (GE Healthcare). HBS-EP+ (GE Healthcare) was used as the running buffer, and the measurement temperature was set to 25° C. Chips produced by immobilizing the antigen peptide by the amine coupling method to a Series S Sencor Chip CM5 (GE Healthcare), or alternatively, chips produced by allowing preliminarily biotinylated antigen peptides to interact with and immobilize onto a Series S Sensor Chip SA (certified) (GE Healthcare) were used. Antibodies of interest were captured onto an antigen peptide-immobilized chip, and allowed to interact to each FcγR diluted with running buffer. To regenerate and repeatedly use the chip, the antibodies captured on the chip were washed off by reacting 10 mM glycine-HCl, pH 1.5.
(§2) The FcγR-binding activity of each antibody was assessed primarily using as an indicator the FcγR-binding activity and dissociation constant for FcγR.

[4] = biological target: T6, FcγRIIIa extracellular domain with C-terminal His tag (human, UniProt P08637 17-208); experiment: as above
T6 construct: extracellular domain; also called FcgRIIIa; 3a; not shown: His tag at the C terminus
Method: as §1, §2

[5] = biological target: T6, FcγRIIIa extracellular domain with …; experiment: SPR; He/Con_3a divided by He/Con_2b (FcγRIIIa over FcγRIIb)
Method: as §1, §2

T6 sequence (P08637 17-208): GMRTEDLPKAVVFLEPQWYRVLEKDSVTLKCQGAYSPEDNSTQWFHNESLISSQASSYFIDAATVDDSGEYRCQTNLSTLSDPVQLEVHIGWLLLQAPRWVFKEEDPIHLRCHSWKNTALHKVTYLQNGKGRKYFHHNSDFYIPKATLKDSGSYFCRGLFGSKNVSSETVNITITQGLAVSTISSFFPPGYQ
T5 sequence (P12314 16-292): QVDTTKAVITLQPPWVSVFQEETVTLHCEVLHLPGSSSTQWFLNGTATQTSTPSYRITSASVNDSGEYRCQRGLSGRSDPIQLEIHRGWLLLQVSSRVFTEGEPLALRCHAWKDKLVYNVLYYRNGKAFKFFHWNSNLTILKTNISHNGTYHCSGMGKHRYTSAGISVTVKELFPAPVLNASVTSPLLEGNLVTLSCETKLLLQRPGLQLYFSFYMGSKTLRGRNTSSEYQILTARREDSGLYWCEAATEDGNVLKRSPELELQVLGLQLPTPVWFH

| He/Con_2b (FcγRIIb [2]) | He/Con_1a (FcγRIa) | He/Con_2b [3] | He/Con_3a [4] | He_3a/2b (IIIa/IIb) [5] [ratio] | Binder | further results |
| --- | --- | --- | --- | --- | --- | --- |
| – | – | 160 relative binding (GpH7-A5/GpH7-B3/GpL16-k0 = 100) | 84 relative binding (GpH7-A5/GpH7-B3/GpL16-k0 = 100) | 0.52 | GpH7-A5/GpH7-B3 variant L328_07I/GpL16-k0 (antibody, human IgG1, kappa, Heterodimerized anti-glypican-3 IgG1; L328I (EU) only in the GpH7-B3 chain; also called He Ab) heavy 1: not shown heavy 2: not shown light: DIVMTQSPLSLPVTPGEPASISCQASESLVHSNRNTYLHWYLQKPGQSPQLLIYKVSNRFSGVPDRFSGSGSGTDFTLKISRVEAEDVGVYYCSQNTHVPPTFGQGTKVEIERTVAAPSVFIFPPSDEQLKSGTASVVCLLNNFYPREAKVQWKVDNALQSGNSQESVTEQDSKDSTYSLSSTLTLSKADYEKHKVYACEVTHQGLSSPVTKSFNRGEC | – |
| 101 % of control | 88.8 % of control | – | – | – | GpH7-A5/GpH7-B3 variant I332_15Y/GpL16-k0 (antibody, human IgG1, kappa, heterodimerized IgG1; alteration in the GpH7-B3 H chain only; also called He Ab) heavy 1: not shown heavy 2: not shown light: DIVMTQSPLSLPVTPGEPASISCQASESLVHSNRNTYLHWYLQKPGQSPQLLIYKVSNRFSGVPDRFSGSGSGTDFTLKISRVEAEDVGVYYCSQNTHVPPTFGQGTKVEIERTVAAPSVFIFPPSDEQLKSGTASVVCLLNNFYPREAKVQWKVDNALQSGNSQESVTEQDSKDSTYSLSSTLTLSKADYEKHKVYACEVTHQGLSSPVTKSFNRGEC | – |

More lines, now with the values behind:

| Binder | He/Con_2b (FcγRIIb [2]) | He/Con_1a (FcγRIa) | He/Con_2b [3] | He/Con_3a [4] | He_3a/2b (IIIa/IIb) [5] [ratio] | further results |
| --- | --- | --- | --- | --- | --- | --- |
| GpH7-A5/GpH7-B3 variant T335_05P/GpL16-k0 (antibody, human IgG1, kappa, Heterodimerized anti-glypican-3 IgG1; substitution in only one H chain (the GpH7-B3 chain); also called He Ab) heavy 1: not shown heavy 2: not shown light: DIVMTQSPLSLPVTPGEPASISCQASESLVHSNRNTYLHWYLQKPGQSPQLLIYKVSNRFSGVPDRFSGSGSGTDFTLKISRVEAEDVGVYYCSQNTHVPPTFGQGTKVEIERTVAAPSVFIFPPSDEQLKSGTASVVCLLNNFYPREAKVQWKVDNALQSGNSQESVTEQDSKDSTYSLSSTLTLSKADYEKHKVYACEVTHQGLSSPVTKSFNRGEC | – | – | – | – | – | He/Con_2aH (FcγRIIa H): 108 % of HeCon Ab; He/Con_2b (FcγRIIb [1]): 99.9 % of HeCon Ab |
| GpH7-A5/GpH7-B3 variant P331_20W/GpL16-k0 (antibody, human IgG1, kappa, heterodimerized IgG1; alteration in the GpH7-B3 H chain only; also called He Ab) heavy 1: not shown heavy 2: not shown light: DIVMTQSPLSLPVTPGEPASISCQASESLVHSNRNTYLHWYLQKPGQSPQLLIYKVSNRFSGVPDRFSGSGSGTDFTLKISRVEAEDVGVYYCSQNTHVPPTFGQGTKVEIERTVAAPSVFIFPPSDEQLKSGTASVVCLLNNFYPREAKVQWKVDNALQSGNSQESVTEQDSKDSTYSLSSTLTLSKADYEKHKVYACEVTHQGLSSPVTKSFNRGEC | 111 % of control | 94.5 % of control | – | – | – | – |
| GpH7-A5/GpH7-B3 variant T335_02A/GpL16-k0 (antibody, human IgG1, kappa, Heterodimerized anti-glypican-3 IgG1; substitution in only one H chain (the GpH7-B3 chain); also called He Ab) heavy 1: not shown heavy 2: not shown light: DIVMTQSPLSLPVTPGEPASISCQASESLVHSNRNTYLHWYLQKPGQSPQLLIYKVSNRFSGVPDRFSGSGSGTDFTLKISRVEAEDVGVYYCSQNTHVPPTFGQGTKVEIERTVAAPSVFIFPPSDEQLKSGTASVVCLLNNFYPREAKVQWKVDNALQSGNSQESVTEQDSKDSTYSLSSTLTLSKADYEKHKVYACEVTHQGLSSPVTKSFNRGEC | – | – | – | – | – | He/Con_2aH (FcγRIIa H): 101 % of HeCon Ab; He/Con_2b (FcγRIIb [1]): 94 % of HeCon Ab |
| GpH7-A5/GpH7-B3 variant I332_11K/GpL16-k0 (antibody, human IgG1, kappa, Heterodimerized anti-glypican-3 IgG1; I332K (EU) only in the GpH7-B3 chain; also called He Ab) heavy 1: not shown heavy 2: not shown light: DIVMTQSPLSLPVTPGEPASISCQASESLVHSNRNTYLHWYLQKPGQSPQLLIYKVSNRFSGVPDRFSGSGSGTDFTLKISRVEAEDVGVYYCSQNTHVPPTFGQGTKVEIERTVAAPSVFIFPPSDEQLKSGTASVVCLLNNFYPREAKVQWKVDNALQSGNSQESVTEQDSKDSTYSLSSTLTLSKADYEKHKVYACEVTHQGLSSPVTKSFNRGEC | – | – | 70.9 relative binding (GpH7-A5/GpH7-B3/GpL16-k0 = 100) | 45.1 relative binding (GpH7-A5/GpH7-B3/GpL16-k0 = 100) | 0.64 | – |
| GpH7-A5/GpH7-B3 variant L328_06M/GpL16-k0 (antibody, human IgG1, kappa, Heterodimerized anti-glypican-3 IgG1; L328M (EU) only in the GpH7-B3 chain; also called He Ab) heavy 1: not shown heavy 2: not shown light: DIVMTQSPLSLPVTPGEPASISCQASESLVHSNRNTYLHWYLQKPGQSPQLLIYKVSNRFSGVPDRFSGSGSGTDFTLKISRVEAEDVGVYYCSQNTHVPPTFGQGTKVEIERTVAAPSVFIFPPSDEQLKSGTASVVCLLNNFYPREAKVQWKVDNALQSGNSQESVTEQDSKDSTYSLSSTLTLSKADYEKHKVYACEVTHQGLSSPVTKSFNRGEC | – | – | 142 relative binding (GpH7-A5/GpH7-B3/GpL16-k0 = 100) | 78.6 relative binding (GpH7-A5/GpH7-B3/GpL16-k0 = 100) | 0.56 | – |
| GpH7-A5/GpH7-B3 variant I332_02A/GpL16-k0 (antibody, human IgG1, kappa, heterodimerized IgG1; alteration in the GpH7-B3 H chain only; also called He Ab) heavy 1: not shown heavy 2: not shown light: DIVMTQSPLSLPVTPGEPASISCQASESLVHSNRNTYLHWYLQKPGQSPQLLIYKVSNRFSGVPDRFSGSGSGTDFTLKISRVEAEDVGVYYCSQNTHVPPTFGQGTKVEIERTVAAPSVFIFPPSDEQLKSGTASVVCLLNNFYPREAKVQWKVDNALQSGNSQESVTEQDSKDSTYSLSSTLTLSKADYEKHKVYACEVTHQGLSSPVTKSFNRGEC | 103 % of control | 88.3 % of control | – | – | – | – |
